# Experimental data reported in patent publication US5780296.
# System: T1, REC2 recombinase (Ustilago maydis)
# T1 sequence: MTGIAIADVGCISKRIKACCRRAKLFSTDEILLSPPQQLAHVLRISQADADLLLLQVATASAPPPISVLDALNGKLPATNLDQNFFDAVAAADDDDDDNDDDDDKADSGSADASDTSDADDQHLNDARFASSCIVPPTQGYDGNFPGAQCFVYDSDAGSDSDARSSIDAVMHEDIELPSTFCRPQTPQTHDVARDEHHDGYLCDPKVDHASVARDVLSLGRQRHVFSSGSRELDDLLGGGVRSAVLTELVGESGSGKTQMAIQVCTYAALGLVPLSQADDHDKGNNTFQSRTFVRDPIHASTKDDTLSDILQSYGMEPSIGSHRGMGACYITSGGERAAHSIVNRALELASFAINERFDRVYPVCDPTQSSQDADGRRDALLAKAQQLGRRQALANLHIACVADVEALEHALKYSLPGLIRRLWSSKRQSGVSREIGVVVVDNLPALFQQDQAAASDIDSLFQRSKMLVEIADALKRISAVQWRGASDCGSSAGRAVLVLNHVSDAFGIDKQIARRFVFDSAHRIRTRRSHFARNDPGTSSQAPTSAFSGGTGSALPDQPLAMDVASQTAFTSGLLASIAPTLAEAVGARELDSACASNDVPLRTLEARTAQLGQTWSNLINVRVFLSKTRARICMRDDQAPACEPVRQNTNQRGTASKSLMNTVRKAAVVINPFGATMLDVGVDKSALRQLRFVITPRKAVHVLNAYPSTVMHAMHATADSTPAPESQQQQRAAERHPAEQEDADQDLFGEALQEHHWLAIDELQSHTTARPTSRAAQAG
# Settings: DNA-dependent ATPase turnover; 10 mM MgCl2, pH 7.5, 37 C
substance,measurement,value
M13 single-stranded circular DNA,activity,5.3 min⁻¹
